Legend:
[1] = target: Pho full-length;Sfmbt 4MBT wild type (Drosophila melanogaster;Drosophila …, UniProt Q8ST83;Q9VK33 1-520;531-980, |); test: EMSA supershift
[2] = target: Pho full-length (Drosophila melanogaster, UniProt Q8ST83 1-520); test: EMSA
[3] = target: T1, Sfmbt 4MBT wild type (Drosophila melanogaster, UniProt Q9VK33 531-980); test: EMSA
T1 sequence: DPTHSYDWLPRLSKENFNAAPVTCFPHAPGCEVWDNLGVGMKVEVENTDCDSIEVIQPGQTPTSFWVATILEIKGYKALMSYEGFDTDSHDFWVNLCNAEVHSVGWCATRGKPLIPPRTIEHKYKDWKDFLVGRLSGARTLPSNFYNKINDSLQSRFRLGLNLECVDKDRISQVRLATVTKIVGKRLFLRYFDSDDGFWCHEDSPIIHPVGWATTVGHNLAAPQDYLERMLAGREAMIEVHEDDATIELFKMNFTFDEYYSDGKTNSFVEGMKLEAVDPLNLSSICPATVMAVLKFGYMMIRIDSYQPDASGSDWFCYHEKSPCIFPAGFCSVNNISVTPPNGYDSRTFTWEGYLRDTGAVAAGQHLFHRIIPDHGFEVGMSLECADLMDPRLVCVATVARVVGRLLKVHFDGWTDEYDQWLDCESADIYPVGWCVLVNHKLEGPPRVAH

Pho full-length;Sfmbt 4MBT wild type, sequence (Q8ST83 whole entry, one chain of several): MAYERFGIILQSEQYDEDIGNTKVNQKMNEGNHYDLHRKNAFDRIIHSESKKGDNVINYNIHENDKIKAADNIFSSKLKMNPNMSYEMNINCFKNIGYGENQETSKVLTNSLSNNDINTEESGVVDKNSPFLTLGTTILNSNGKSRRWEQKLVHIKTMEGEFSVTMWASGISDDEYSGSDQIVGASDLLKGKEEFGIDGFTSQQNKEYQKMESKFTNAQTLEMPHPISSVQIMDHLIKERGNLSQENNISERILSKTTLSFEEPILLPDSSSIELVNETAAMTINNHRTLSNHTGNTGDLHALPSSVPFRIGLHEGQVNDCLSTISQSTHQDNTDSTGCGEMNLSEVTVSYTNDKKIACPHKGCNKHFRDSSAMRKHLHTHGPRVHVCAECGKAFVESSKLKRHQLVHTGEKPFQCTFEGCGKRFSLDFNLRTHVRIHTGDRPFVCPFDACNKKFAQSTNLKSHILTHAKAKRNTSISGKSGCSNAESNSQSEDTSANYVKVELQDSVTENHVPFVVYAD
Pho full-length, sequence (Q8ST83 whole entry): as the sequence (Q8ST83 whole entry, one chain of several) above

B1: Pho DNA-binding site probe (dsDNA)
DNA 1: CTCCGTCGCCATAACTGTCG
DNA 2: CGACAGTTATGGCGACGGAG
**Q.** What does the source list for B1?
**A.** binding result [1]: binds; binding result [2]: binds; binding result [3]: no binding

Source: publication PMC3828522
